Non-standard residues stand in square brackets, D forms with d. No end group written: not given here. dCha = N[C@H](CC1CCCCC1)C(=O)O
B1: PCP-13.21 (peptide)
peptide: [dI][dL]G[dH][dR][dD][dY][dK]-NH2
modifications: N-terminus assumed
SMILES: CC[C@@H](C)[C@@H](N)C(=O)N[C@H](CC(C)C)C(=O)NCC(=O)N[C@H](Cc1c[nH]cn1)C(=O)N[C@H](CCCNC(=N)N)C(=O)N[C@H](CC(=O)O)C(=O)N[C@H](Cc1ccc(O)cc1)C(=O)N[C@H](CCCCN)C(N)=O
B2: PCP-13.20 (peptide)
peptide: [dI][dL]G[dH][dR][dD][dY]-NH2
modifications: N-terminus assumed
SMILES: CC[C@@H](C)[C@@H](N)C(=O)N[C@H](CC(C)C)C(=O)NCC(=O)N[C@H](Cc1c[nH]cn1)C(=O)N[C@H](CCCNC(=N)N)C(=O)N[C@H](CC(=O)O)C(=O)N[C@H](Cc1ccc(O)cc1)C(N)=O

target: FP receptor in porcine tissue (retinal microvessels, uterine myometrium) (pig); assay: cell-based or functional assay

| % Inhibition of Maximal Response, 100 µM peptide, 10^-7 M PGF2α, porcine eyecup | % Vasomotor Response (of maximum constriction), 100 µM peptide, 10^-7 M PGF2α, porcine eyecup | Binder |
| --- | --- | --- |
| 70% | 30% | [dI][dL]G[dH][dQ][dD][dY][dK] [PCP-13.18] |
| 63.1% | 36.9% | [dI][dL]G[dH][dK][dD][dY][dK] [PCP-13.13] |
| 50% | 50% | ILGHRDYK [PCP-8] |
| 53.2% | 46.8% | [dI][dL]A[dH][dR][dD][dY][dK] [PCP-13.8] |
| 80% | 20% | [dI][dL]G[dH][dR][dD][dY][dK] [PCP-13] |
| 53.8% | 46.2% | B1 |
| 64% | 36% | [dY][dQ][dD][dR][dF][dY][dL][dL] [PCP-14] |
| 87% | 13% | [dI][dL]G[dF][dR][dD][dY][dK] [PCP-13.11] |
| 88.1% | 11.9% | [dS][dN][dV][dL][dC][dS][dI][dF] [PCP-15] |
| 80% | 20% | WEDRFYLL [PCP-10] |
| 50.4% | 49.6% | B2 |
| 93.8% | 6.2% | [dI][dL]G[dCha][dR][dD][dY][dK] [PCP-13.24] |
| 76.2% | 23.8% | [dI][dL][dA][dH][dR][dD][dY][dK] [PCP-13.7] |
| 83.4% | 16.6% | [dI][dL]G[dW][dR][dD][dY][dK] [PCP-13.22] |

target: PAF receptor in porcine retinal microvessels (pig, UniProt Q9XSD4 1-342); assay: cell-based or functional assay
Sequence (Q9XSD4 whole entry): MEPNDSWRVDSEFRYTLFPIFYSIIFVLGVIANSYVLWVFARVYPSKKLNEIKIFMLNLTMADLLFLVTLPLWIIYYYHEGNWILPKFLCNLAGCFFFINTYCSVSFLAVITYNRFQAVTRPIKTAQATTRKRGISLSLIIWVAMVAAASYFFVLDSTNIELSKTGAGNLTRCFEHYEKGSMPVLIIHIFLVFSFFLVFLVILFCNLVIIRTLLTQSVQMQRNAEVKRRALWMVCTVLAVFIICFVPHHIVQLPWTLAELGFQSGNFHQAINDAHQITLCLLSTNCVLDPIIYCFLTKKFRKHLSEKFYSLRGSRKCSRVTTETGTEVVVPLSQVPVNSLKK

| IC50, C-PAF induced retinal vasomotor responses, porcine eyecup | Binder |
| --- | --- |
| 134 nM | [dL][dV][dP][dV][dS]G[dK][dE][dY] [SEQ ID NO:85] |

target: Urotensin receptor (GPR14) in porcine tissue (retinal microvessels, aortic strips) (pig); assay: cell-based or functional assay

| IC50, U-II (1 µM) mediated contractility of retinal microvessels | Binder |
| --- | --- |
| 115 nM | [dV][dI][dR][dA][dT][dR][dP][dA][dL] [SEQ ID NO:79] |

From patent US20040235749A1 (HOSPITAL SAINTE JUSTINE, published 2004)
